B1: GST–Hsc70 N402 (1–402 aa) (domain or fragment)
chain: not shown
B2: GST–NS2 (natural protein)
chain: MDPNTVSSFQDILLRMSKMQLESSSGDLNGMITQFESLKLYRDSLGEAVMRMGDLHSLQNRNEKWREQLGQKFEEIRWLIEEVRHKLKITENSFEQITFMQALHLLLEVEQEIRTFSFQLI
B3: His–M1 (influenza virus M1 protein, wild type) (natural protein)
chain: MSLLTEVETYVLSIIPSGPLKAEIAQRLEDVFAGKNTDLEVLMEWLKTRPILSPLTKGILGFVFTLTVPSERGLQRRRFVQNALNGNGDPNNMDKAVKLYRKLKREITFHGAKEISLSYSAGALASCMGLIYNRMGAVTTEVAFGLVCATCEQIADSQHRSHRQMVTTTNPLIRHENRMVLASTTAKAMEQMAGSSEQAAEAMEVASQARQMVQAMRTIGTHPSSSAGLKNDLLENLQAYQKRMGVQMQRFK
B4: GST–Hsc70 N384 (1–384 aa) (domain or fragment)
chain: not shown

Tests used:
[1] = biological target: B3; assay: far-Western, overlay or dot blot
[2] = biological target: B3; assay: pull-down
[3] = biological target: GST–Hsc70 wild-type (1–646 aa) (UniProt P11142 1-646); assay: pull-down
GST–Hsc70 wild-type (1–646 aa), sequence (P11142 whole entry, the tested form may be a part): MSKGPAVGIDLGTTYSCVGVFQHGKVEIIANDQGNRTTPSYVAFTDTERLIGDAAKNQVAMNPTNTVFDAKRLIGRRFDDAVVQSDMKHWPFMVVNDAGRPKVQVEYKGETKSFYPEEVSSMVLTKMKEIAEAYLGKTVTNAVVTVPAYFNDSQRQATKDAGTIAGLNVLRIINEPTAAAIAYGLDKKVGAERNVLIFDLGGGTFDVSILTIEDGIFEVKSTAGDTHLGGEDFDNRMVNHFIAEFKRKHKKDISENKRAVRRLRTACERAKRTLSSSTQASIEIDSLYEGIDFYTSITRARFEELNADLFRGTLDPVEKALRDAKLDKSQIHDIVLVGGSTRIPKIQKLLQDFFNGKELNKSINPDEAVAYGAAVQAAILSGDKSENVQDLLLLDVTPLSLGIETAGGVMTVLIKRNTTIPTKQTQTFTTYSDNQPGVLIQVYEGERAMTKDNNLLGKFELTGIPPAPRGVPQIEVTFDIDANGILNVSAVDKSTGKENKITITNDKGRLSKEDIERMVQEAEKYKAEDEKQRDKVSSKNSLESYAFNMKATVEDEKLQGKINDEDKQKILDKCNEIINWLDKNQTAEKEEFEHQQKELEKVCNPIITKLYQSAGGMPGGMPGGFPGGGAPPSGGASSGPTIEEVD

Row | Binder | relative band intensity [1] | other results
1 | B1 | 0.71 relative (wild type = 1) | –
2 | B2 | – | Kd [2]: 6 µM
3 | B3 | – | Kd [3]: 0.1 µM
4 | B4 | 0.26 relative (wild type = 1) | –

From paper PMC4141210 (FEBS Open Bio, 2014)
